Series [1] concerns the target Synaptobrevin-2, full-length protein Syb(1-116) (Rattus norvegicus) (UniProt P63045). The series can be described thus: cross-linking; Syb(1-116) in solution (chaps), 10 μM and 100 μM protein, BS3 (83-166 μM at 100 μM protein), 1 h at 25 °C; Coomassie gel and western blot; cross-linked peptides by LC-MS/MS.
Series [2] shares this target. The series is described as above. The source holds these as a separate data set.
Series [3] deals with the molecule itself. The series can be described thus: native MS; Syb(49-96) at 10 μM, 200 mM ammonium acetate pH 7.0.
Series [4] deals with the molecule itself. The series can be described thus: cross-linking; 650 μM Syb(49-96), 180 and 250 μM BS3, 1 h at 25 °C; Coomassie gel and western blot; cross-linked peptides by LC-MS/MS.
Series [5] concerns the molecule itself. The series can be described thus: ion mobility mass spectrometry; Syb(49-96), nESI, home-built drift-tube instrument, helium buffer gas, soft conditions; limited transmission for high m/z.

Where “and” joins values, the source holds several entries; their conditions need not be identical. Identical values can stand only once. Like-named read-outs stand apart in the source and are kept apart here.

For the molecule “Synaptobrevin-2, full-length protein Syb(1-116) (from UniProt P63045 1-116) (natural protein)”, the stoichiometry N was 2 and < 5 in series [1]; < 6 in series [2].

B1: Synaptobrevin-2, C-terminal fragment of the cytosolic domain Syb(49-96) (domain or fragment, Rattus norvegicus, UniProt P63045 49-96, looked up)
chain: NVDKVLERDQKLSELDDRADALQAGASQFETSAAKLKRKYWWKNLKMM
notes: Synaptobrevin-2, Rattus norvegicus, UniProt P63045, residues 49-96 (C-terminal half of the SNARE motif and the juxtamembrane domain); Residual residues of the thrombin cleavage site stay at the N-terminus (measured mass 6045 Da); Plasmid was a gift from R. Jahn; source: E. coli BL21 (DE3), purified (Ni2+ IMAC, thrombin cleavage, reversed IMAC, SEC without detergent); not shown: His-tag, …
As to B1, the “stoichiometry N” value in series [3] was 2; in series [4], ≤ 10; in series [5] it was ≤ 3.

The record behind these values is publication PMC6318248, “Oligomerisation of Synaptobrevin-2 Studied by Native Mass Spectrometry and Chemical Cross-Linking” (Journal of the American Society for Mass Spectrometry, 2018).
